Test results from publication PMC4460869.

Target: GST-tagged BmAPN4 (silkworm aminopeptidase N 4) (Bombyx mori)

Substance: trypsin-activated parasporal crystal toxin (PC) from Bacillus bombysepticus (domain or fragment)
- proportion of viable BmAPN4-expressing Sf9 cells after PC, counted in 50 optical fields: 15.8%
- release of total intracellular LDH from BmAPN4-transfected Sf9 cells into the medium after trypsin-activated PC, 6 h; untransfected Sf9 cells not affected: 35.3%
